{
  "source": "patent US20120277286A1",
  "about": "“COMPOSITIONS AND METHODS FOR THE TREATMENT OR PREVENTION OF MITOCHONDRIAL DISEASES” (The Government of the USA, as represented by the Secretary, …, priority 2009, published 2012)",
  "molecules": {"B1": {"name": "YFP-Parkin: YFP-tagged Parkin E3 ligase expressed from a transfected vector (protein, UniProt O60260 1-465, looked up)", "E3 ubiquitin-protein ligase …": "MIVFVRFNSSHGFPVEVDSDTSIFQLKEVVAKRQGVPADQLRVIFAGKELRNDWTVQNCDLDQQSIVHIVQRPWRKGQEMNATGGDDPRNAAGGCEREPQSLTRVDLSSSVLPGDSVGLAVILHTDSRKDSPPAGSPAGRSIYNSFYVYCKGPCQRVQPGKLRVQCSTCRQATLTLTQGPSCWDDVLIPNRMSGECQSPHCPGTSAEFFFKCGAHPTSDKETSVALHLIATNSRNITCITCTDVRSPVLVFQCNSRHVICLDCFHLYCVTRLNDRQFVHDPQLGYSLPCVAGCPNSLIKELHHFRILGEEQYNRYQQYGAEECVLQMGGVLCPRPGCGAGLLPEPDQRKVTCEGGNGLGCGFAFCRECKEAYHEGECSAVFEASGTTTQAYRVDERAAEQARWEAASKETIKKTTKPCPRCHVPVEKNGGCMHMKCPQPQCRLEWCWNCGCEWNRVCMGDHWFDV", "modifications": "YFP fusion", "notes": "YFP-tagged Parkin E3 ligase expressed from a transfected vector"}, "B2": {"name": "PINK1: exogenously expressed wild type PINK1 (V5 or myc tagged) (protein, UniProt Q9BXM7 78-581, looked up)", "Serine/threonine-protein …": "AARLQRQFVVRAWGCAGPCGRAVFLAFGLGLGLIEEKQAESRRAVSACQEIQAIFTQKSKPGPDPLDTRRLQGFRLEEYLIGQSIGKGCSAAVYEATMPTLPQNLEVTKSTGLLPGRGPGTSAPGEGQERAPGAPAFPLAIKMMWNISAGSSSEAILNTMSQELVPASRVALAGEYGAVTYRKSKRGPKQLAPHPNIIRVLRAFTSSVPLLPGALVDYPDVLPSRLHPEGLGHGRTLFLVMKNYPCTLRQYLCVNTPSPRLAAMMLLQLLEGVDHLVQQGIAHRDLKSDNILVELDPDGCPWLVIADFGCCLADESIGLQLPFSSWYVDRGGNGCLMAPEVSTARPGPRAVIDYSKADAWAVGAIAYEIFGLVNPFYGQGKAHLESRSYQEAQLPALPESVPPDVRQLVRALLQREASKRPSARVAANVLHLSLWGEHILALKNLKLDKMVGWLLQQSAATLLANRLTEKCCVETKMKMLFLANLECETLCQAALLLCSWRAAL", "modifications": "V5 or myc tag"}},
  "key": {"[1]": {"test_system": "PINK1+/+ or PINK1−/− MEFs", "assay": "Parkin-induced mitophagy in MEFs", "type": "cell-based, mouse", "settings": "primary MEFs expressing YFP-Parkin, 20 μM CCCP, 24 hours; PINK1+/+ (CCCP line) or PINK−/− reconstituted with PINK1", "excerpt": "HeLa YFP-Parkin, PINK1+/+ SV40 transformed MEFs cells, PINK1−/− SV40 transformed MEF, M17 neuroblastoma control shRNA, M17 neuroblastoma PINK1, and Mfn1/2−/− MEF cell lines have been described previously (Narendra (2008) J Cell Biol 183: 795-803). PINK1+/+ and PINK1−/− primary MEFs were isolated from embryos using a standard protocol (Gautier (2008) Proc Natl Acad Sci USA 105: 11364-11369). Parkin+/+ and Parkin−/− transformed MEFs were created by isolation of primary cells from embryos of B6.129S4-Park2tm1Shn/J mice (Jackson Labs), using a standard protocol (Gautier (2008) Proc Natl Acad Sci USA 105: 11364-11369), followed by retroviral transduction of SV40 (Applied Biological Materials, Inc.). YFP-Parkin, YFPParkin mutants, mCherry-Parkin, PINK1-YFP, PINK1 KD-YFP, PINK1 Δ1-110-YFP, and Opa3-PINK1 Δ1-110-YFP are in C1 or N1 Clontech vectors. PINK1WT-V5, PINK1 KD-V5, and PINK1 Δ1-156-V5 are in pDest40 vector (Invitrogen). PINK1 patient mutations are in pLenti-V5 vector (Invitrogen). PINK1-myc is in a pCMBTNT vector (Promega).\nConfocal microscopy of fixed samples, scoring of Parkin recruitment and Parkininduced mitophagy, and live cell imaging were performed as described previously (Narendra (2008) J Cell Biol 183: 795-803). Experiments in Mfn1/2 null cells were performed as described previously with minor modifications. […]"}, "HeLa cells [2]": {"test_system": "HeLa cells", "assay": "Parkin colocalization with mitochondria scored by confocal microscopy", "type": "cell-based", "settings": "for YFP-Parkin (wild type or indicated mutant) colocalization with mitochondria, % of cells: HeLa cells, 10 μM CCCP, 1 hour; for cells with YFP-Parkin co-localized with TMRE: HeLa, no CCCP, YFP-Parkin alone or with PINK1-myc 1:4", "in_short": "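Transfected HeLa cells fixed 12–24 h post-transfection in 4% paraformaldehyde. Cells immunostained for mitochondrial markers and imaged by confocal microscopy. Parkin recruitment to mitochondria assessed by line-scan colocalization.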"}, "HeLa cells [3]": {"test_system": "HeLa cells", "assay": "Live cell imaging, time to Parkin translocation", "type": "cell-based", "settings": "mCherry-Parkin alone (CCCP line) or with PINK1-YFP 1:1, 10 μM CCCP", "experimental": "FIGS. 13A-13D show the kinetics of Parkin recruitment are modulated by PINK1 expression. […] The cells were imaged live following the addition of 10 μM CCCP in serum at time point 0 min FIG. 13B lists the vectors used for transfection of HeLa cells with mCherry-Parkin and the indicated construct in a 1:1 ratio were treated as in (A) and imaged live (1 frame/minute) following the addition of CCCP. Time to the beginning of Parkin translocation was defined as the first appearance of puncta in ≧2 quandrants of the cell for ≧2 consecutive images for ≧6 cells in ≧3 independent experiments. […] Cells were loaded with TMRE (red) to stain polarized mitochondria. Cells were not treated with CCCP. Scale bars in last image=10 μm. FIG. 13D is a graph that quantitates results in cells treated as described in FIG. 13C, which were scored for co-localization between YFP-Parkin and TMRE. ≧50 cells/experiment were scored in ≧3 independent experiments.\n(§1) Confocal microscopy of fixed samples, scoring of Parkin recruitment and Parkin-induced mitophagy, and live cell imageing were performed as described previously (Narendra (2008) J Cell Biol 183: 795-803). Experiments in Mfn1/2 null cells were performed as described previously with minor modifications described in the supplemental methods (Narendra (2008) J Cell Biol 183: 795-803)."}, "HeLa cells [4]": {"test_system": "HeLa cells", "assay": "Parkin-induced mitophagy, loss of mitochondria by immunocytochemistry", "type": "cell-based", "experimental": "Cultured cells seeded in borosilicate chamber slides (Thermo Fisher Scientific) were transfected or cotransfected with YFP-Parkin, ECFP-Parkin, mCherry-Parkin, DsRed-Mito (Clontech Laboratories, Inc.), pcDNA3.1 (Invitrogen), vMIA, and/or Drp1K38A constructs using Fugene 6 (Roche). Parkin-myc was a gift from M. Cookson (National Institutes of Health, Bethesda, Md.). Cells were fixed 12-24 hours after transfection with 4% paraformaldehyde in PBS. Cells were stained with following primary antibodies: mouse monoclonal cytochrome c (BD), rabbit polyclonal Tom20 (Santa Cruz Biotechnology, Inc.), mouse monoclonal Parkin PRK8 (Santa Cruz Biotechnology, Inc.), rabbit polyclonal PMP70 (Invitrogen), and/or mouse monoclonal TRAP1 (Abcam); and with the following secondary antibodies: mouse and/or rabbit Alexa 488, 594, and 633 (Invitrogen). For assessment of mitochondrial membrane potential, cells were pulsed with 50 nM Mito-Tracker red (Invitrogen) for 15 min, washed, and incubated for an additional 10 minutes before fixation or imaging. For assessment of cell metabolic potential, cell nuclei were stained with Hoechst 33342 (Invitrogen).\nConfocal microscopy of fixed samples, scoring of Parkin recruitment and Parkininduced mitophagy, and live cell imaging were performed as described previously (Narendra (2008) J Cell Biol 183: 795-803). Experiments in Mfn1/2 null cells were performed as described previously with minor modifications.\nas §1"}},
  "note": "Values joined by “and” are separate entries in the source; they are usually repeats but may differ in a detail not shown here. Equal entries are not always repeated.",
  "data": [
    {"molecule": "N#CC(C#N)=NNc1cccc(Cl)c1", "note": "[CCCP, carbonyl cyanide m-chlorophenylhydrazone]", "values": [
      {"measurement": "cells with no detectable mitochondria", "setting": "[1]", "result": "66.1±16.8", "unit": "%"},
      {"measurement": "YFP-Parkin (wild type or indicated mutant) colocalization with mitochondria, % of cells", "setting": "HeLa cells [2]", "result": "78.49±2.61% and 96.0±3.5%"},
      {"measurement": "time to translocation of Parkin", "setting": "HeLa cells [3]", "result": "32.0 ± 5.4", "unit": "min"}
    ]},
    {"molecule": "B1", "values": [
      {"measurement": "YFP-Parkin (wild type or indicated mutant) colocalization with mitochondria, % of cells", "setting": "HeLa cells [2]", "result": "94.7±5.8", "unit": "%"},
      {"measurement": "cells with YFP-Parkin co-localized with TMRE", "setting": "HeLa cells [2]", "result": "0±0", "unit": "%"},
      {"measurement": "cells with no mitochondria", "setting": "HeLa cells [4]; HeLa expressing YFP-Parkin variant, CCCP 24 hours", "result": "59.0±15.1", "unit": "%"},
      {"measurement": "mitochondrial mass in Parkin-expressing cells", "setting": "HeLa cells [4]; HeLa, 10 μM CCCP, 12 hours", "result": "grossly reduced"},
      {"measurement": "mitochondria detectable in Parkin-expressing cells (Tom20, cytochrome c, TRAP1)", "setting": "HeLa cells [4]; HeLa, 10 μM CCCP, 48 hours", "result": "no mitochondria remained detectable"}
    ]},
    {"molecule": "B2", "values": [
      {"measurement": "cells with no detectable mitochondria", "setting": "[1]", "result": "65.5±5.0", "unit": "%"},
      {"measurement": "cells with YFP-Parkin co-localized with TMRE", "setting": "HeLa cells [2]", "result": "45.3±7.6", "unit": "%"},
      {"measurement": "cells with no mitochondria", "setting": "HeLa cells [4]; HeLa, co-transfection with Parkin, 96 hours, absence of CCCP", "result": "42.1±7.3", "unit": "%"},
      {"measurement": "time to translocation of Parkin", "setting": "HeLa cells [3]", "result": "5.0 ± 1.5", "unit": "min"}
    ]}
  ]
}
